Results: patent CN116253795A (SUN YAT SEN UNIV CANCER CENTER SUN YAT SEN UNIV AFFILIATED …, dated 2023)

Legend:
[1] = target: T1, gHgL胞外域全长蛋白 (recombinant single-chain EBV gL-linker-gH ectodomain with 6xHis, SEQ ID NO.12) (Epstein-Barr virus, M81 strain …); test: SPR, Biacore 8K, antibody captured on Protein A chip, gHgL as analyte 3.125-200 nM
T1 construct: not shown: 6xHis tag

[2] = target: T2, P9肽 (biotinylated 20-mer peptide of gL, aa 104-123) (Epstein-Barr virus, M81 strain, N-terminal biotin); test: ELISA, biotinylated peptide on streptavidin plate, antibody 1 ug/mL
T2 peptide: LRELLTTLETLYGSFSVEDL

[3] = target: T1, gHgL胞外域全长蛋白 (recombinant single-chain …); test: ELISA, gHgL protein coated at 2 ug/mL, antibody titrated

B1: 兔源单克隆抗体10E4 (rabbit monoclonal antibody 10E4) (antibody, V domains shown)
VH: QQVKESGGRLVTPGTPLTLTCTASGFSLSTYWMSWVRQAPGKGLEYIGVIGGSGSTYYASWAKGRFTISKTSTTVDLKITSPTTEDTATYFCARDSGAGVRFRFWGPGTLVTVSS
VL: DLVMTQTPASVEAGVGGTVTINCQASENIGSRLAWYQQKPGQPPKLLIYRASTLESGVPSRFKGSGSGTEFTLTISDLECADAATYYCQCTYGVSITINYGNDFGGGTEVVVKG
notes: also called 单抗10E4
- Kd [1]: 3.53 nM
- binding result [2]: binds
- EC50 [3]: 0.0335 µg/mL
